This assay concerns the target recombinant leucyl aminopeptidase of T. cruzi (rLAPTc), N-terminal His-tag (Trypanosoma cruzi). The experiment in a line: AUC + SEC; sedimentation velocity of rLAPTc at 170, 56 and 10 μM, 25 mM Tris pH 8.0, 150 mM NaCl, 10°C, 42,000 rpm; s-values combined with Stokes radii from calibrated SEC (SEC-AUC method).

In the case of “recombinant leucyl aminopeptidase of T. cruzi (rLAPTc), N-terminal His-tag (enzyme)”, the stoichiometry N (usually the number of molecules, sites or subunits per partner or assembly) (species eluting at 9 ml) stood at 10.1 subunits and the stoichiometry N (species eluting at 10 ml) came out at 5.6 subunits.

For the origin of these results see article PMC3179936.
